This note sets out measurements from patent US20090118167A1, “Selective Vpac2 Receptor Peptide Agonists” (Eli Lilly and Company Patent Division, priority 2004, published 2009).

For orientation: IC50 means the concentration that gives 50% inhibition. Broadly, the Vd/F is the volume of distribution divided by bioavailability.

Series [1] deals with T1, human VPAC1 (Homo sapiens, UniProt P32241).
T1 construct: expressed in transfected cells
T1 sequence (P32241 31-457): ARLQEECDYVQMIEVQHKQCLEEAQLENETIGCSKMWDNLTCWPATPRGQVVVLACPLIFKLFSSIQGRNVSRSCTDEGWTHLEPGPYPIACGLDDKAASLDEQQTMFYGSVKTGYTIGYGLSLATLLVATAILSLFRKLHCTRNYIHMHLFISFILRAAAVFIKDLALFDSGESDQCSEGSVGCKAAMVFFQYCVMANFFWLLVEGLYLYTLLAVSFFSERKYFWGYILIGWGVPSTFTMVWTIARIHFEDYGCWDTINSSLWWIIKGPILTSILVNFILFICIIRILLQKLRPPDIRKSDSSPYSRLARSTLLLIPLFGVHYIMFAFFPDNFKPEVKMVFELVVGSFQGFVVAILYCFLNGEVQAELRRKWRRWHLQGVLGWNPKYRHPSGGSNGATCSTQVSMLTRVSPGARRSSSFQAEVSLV
The experiment in a line: Filter binding assay, 125I-labeled VIP tracer. As to conditions: membranes from cells transiently transfected with human VPAC1; read-out: Human receptor binding IC50 VPAC1. On the procedure:
(§1) In order to prepare the filter plates, the presoak solution is aspirated by vacuum filtration. The plates are flushed twice with 200 μL flush buffer. 200 μL blocking buffer is added to the filter plate. The filter plate is then incubated with 200 μL presoak solution for 1 hour at room temperature.
(§2) The assay plate is filled with 25 μL assay buffer, 25 μL membranes (2.5 μg) suspended in assay buffer, 25 μL compound (agonist) in assay buffer, and 25 μL tracer (about 40000 cpm) in assay buffer. The filled plate is incubated for 1 hour with shaking.
(§3) The transfer from assay plate to filter plate is conducted. The blocking buffer is aspirated by vacuum filtration and washed two times with flush buffer. 90 μL is transferred from the assay plate to the filter plate. The 90 μL transferred from assay plate is aspirated and washed three times with 200 μL flush buffer. The plastic support is removed. It is dried for 1 hour at 60° C. 30 μL Microscint is added. The count is performed.
(§4) Values reported are single results or the mean of two or more independent runs.

The target in series [2] is T2, human PAC1 (Homo sapiens, UniProt P41586).
T2 construct: expressed in transfected cells; membranes)
T2 sequence (P41586 21-468): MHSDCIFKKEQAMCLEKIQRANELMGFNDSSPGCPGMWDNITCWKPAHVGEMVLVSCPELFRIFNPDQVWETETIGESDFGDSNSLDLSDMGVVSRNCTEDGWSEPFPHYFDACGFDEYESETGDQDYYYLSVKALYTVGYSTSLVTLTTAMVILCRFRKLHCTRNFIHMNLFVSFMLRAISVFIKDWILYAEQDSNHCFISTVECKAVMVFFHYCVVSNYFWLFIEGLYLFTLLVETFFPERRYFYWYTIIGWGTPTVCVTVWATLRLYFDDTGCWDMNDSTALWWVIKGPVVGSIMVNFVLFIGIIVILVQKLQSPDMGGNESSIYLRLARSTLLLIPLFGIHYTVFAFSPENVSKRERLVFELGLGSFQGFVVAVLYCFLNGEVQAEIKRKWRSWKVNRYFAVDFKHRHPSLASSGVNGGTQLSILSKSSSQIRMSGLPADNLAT
The experiment in a line: Filter binding assay, 125I-labeled PACAP-27 tracer. The following applies: membranes from cells transiently transfected with human PAC1; read-out: Human receptor binding IC50 PAC1. On the procedure:
as §1, §2, §3, §4

For series [3] the following is noted: rat, in vivo, sc, 0.1 mg/kg. On the procedure: Healthy Fisher 344 rats (3 animals per group) are injected with 100 μg compound/kg (compound amount based on peptide content and dissolved in PBS buffer). […] PK parameters are then calculated using a model-independent method (WinNonlin Pro, Pharsight Corp., Mountain View, Calif., USA).
In series [4] the test system is Normal Wistar rats. The experiment in a line: Intravenous glucose tolerance test (IVGTT). In kind it is in vivo, rat. The protocol: Intravenous glucose tolerance test (IVGTT): Normal Wistar rats are fasted overnight and are anesthetized prior to the experiment. A blood sampling catheter is inserted into the rats. The compound is given in the jugular vein. Blood samples are taken from the carotid artery. A blood sample is drawn immediately prior to the injection of glucose along with the compound. After the initial blood sample, glucose mixed with compound is injected intravenously (i.v.). Compound may also be injected intravenously or subcutaneously prior to the glucose challenge. A glucose challenge of 0.5 g/kg body weight is given, injecting a total of 1.5 mL vehicle with glucose and agonist per kg body weight. The peptide concentrations are varied to produce the desired dose in μg/kg. Blood samples are drawn at 2, 4, 6 and 10 minutes after giving glucose. The control group of animals receives the same vehicle along with glucose, but with no compound added. In some instances, a 30 minute post-glucose blood sample is drawn. Aprotinin is added to the blood sample (250-500 kIU/ml blood). The serum is then analyzed for glucose and insulin using standard methodologies.
The assay uses a formulated and calibrated peptide stock in PBS. Normally, this stock is a prediluted 100 μM stock. However, a more concentrated stock with approximately 1 mg agonist per mL is used. The specific concentration is always known. Variability in the maximal response is mostly due to variability in the vehicle dose.

Series [5] has as its target T3, human VPAC2 receptor (human, UniProt P41587 24-438).
T3 sequence (looked up): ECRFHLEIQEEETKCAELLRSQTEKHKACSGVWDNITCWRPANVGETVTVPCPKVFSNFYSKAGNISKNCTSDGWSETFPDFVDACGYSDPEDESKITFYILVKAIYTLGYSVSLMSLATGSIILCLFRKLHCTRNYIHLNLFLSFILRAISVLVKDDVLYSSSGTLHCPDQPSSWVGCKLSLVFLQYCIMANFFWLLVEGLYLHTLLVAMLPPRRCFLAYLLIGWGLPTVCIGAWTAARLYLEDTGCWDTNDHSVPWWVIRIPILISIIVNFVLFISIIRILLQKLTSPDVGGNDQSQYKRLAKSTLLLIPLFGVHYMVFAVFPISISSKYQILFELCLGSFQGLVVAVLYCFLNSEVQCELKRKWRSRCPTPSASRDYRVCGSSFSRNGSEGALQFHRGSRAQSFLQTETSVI
Nature of the series: cell-based or functional assay.

Series [6] deals with T3, human VPAC2 receptor. Nature of the series: filter binding assay, human VPAC2 membranes, displacement of 125I-VIP. On the procedure:
as §2, §3

Marks after values point to notes of the source that are not given here. Square brackets hold non-standard residues; d marks the D form. Ends that are not written are not given here. Nle = CCCC[C@H](N)C(=O)O; Orn = NCCC[C@H](N)C(=O)O; Aib = CC(C)(N)C(=O)O

As to “P463: cyclic PEGylated VPAC2 receptor peptide agonist (HSDAVFTENYT[Orn]LR[Aib]Q[Nle]AA[Orn]KYLNDL[Orn][Orn]GGPSSGAPPPC; also: cyclic, bridge type and places not given here, PEGylated, site not given here) [Agonist P463]”, the IC50 in series [1] was over 3000 nM; in series [2], over 25000 nM.

In the case of “P279: cyclic PEGylated VPAC2 receptor peptide agonist (HSDAVFTENYTKLR[Aib]Q[Nle]AAKKYLNDLKKGGPSSGAPPPC; not fully specified (residue 39); ends and bridges not checked; also: cyclic, bridge type and places not given here, PEGylated, site not placed) [Agonist P279]”, the IC50 in series [1] is over 3000 nM; in series [2], over 25000 nM.

Regarding “P239: cyclic PEGylated VPAC2 receptor peptide agonist (HSDAVFTENYTKLRKQ[Nle]AAKKYLNDLKQGGPSSGAPPPC; not fully specified (residue 39); ends and bridges not checked; also: cyclic, bridge type and places not given here, PEGylated, site not placed) [Agonist P239]”, the IC50 is over 3000 nM in series [1] and over 25000 nM in series [2].

Regarding “P274: cyclic PEGylated VPAC2 receptor peptide agonist (HSDAVFTENYTKL[Aib]KQ[Nle]AAKKYLNDLKQKGGPSSGAPPPC; not fully specified (residue 40); ends and bridges not checked; also: cyclic, bridge type and places not given here, PEGylated, site not placed) [Agonist P274]”, the figures for the IC50 in series [1] and in series [2] were over 3000 nM and over 25000 nM, respectively.

In series [3], “P255: cyclic PEGylated VPAC2 receptor peptide agonist (HSDAVFTENYTKL[Aib]KQ[Nle]AAKKYLNDLKQGGPSSGAPPPC; not fully specified (residue 39); ends and bridges not checked; also: cyclic, bridge type and places not given here, PEGylated, site not placed) [Agonist P255]” registered an AUC0-last of 5797 ng·h/mL, a Cl/F of 0.283 mL/min/kg and a Vd/F of 0.389 L/kg. Also, in series [1], the IC50 was over 3000 nM. In series [2], the IC50 was over 25000 nM.

For “P277: cyclic PEGylated VPAC2 receptor peptide agonist (HSDAVFTENYTKLRKQ[Nle]AAKKYLNDLKQGGPSSGAPPPC; ends and bridges not checked; also: cyclic, bridge type and places not given here, PEGylated, site not placed) [Agonist P277]”, the IC50 in series [1] was over 3000 nM; in series [2] it was over 25000 nM.

Turning to “P376: cyclic PEGylated VPAC2 receptor peptide agonist (HSDAVFTENYT[Orn]LR[Aib]Q[Nle]AA[Orn]KYLNDL[Orn][Orn]GGPSSGAPPPC; also: cyclic, bridge type and places not given here, PEGylated, site not placed) [Agonist P376]”, the IC50 in series [1] was over 3000 nM; in series [2] it was over 25000 nM.

With “P201: cyclic PEGylated VPAC2 receptor peptide agonist; P200 reacted with methoxy-PEG2-MAL-40K (HSDAVFTENYTKLRKQ[Nle]AAKKYLNDLKKGGPSSGAPPPC(methoxy‑PEG2‑MAL‑40K); ends and bridges not checked; also: cyclic, bridge kind and places not given here) [Agonist P201]”, the AUC0-last in series [3] worked out at 8101 ng·h/mL. Moreover, the Cl/F in series [3] came to 0.2 mL/min/kg. This molecule also yielded a Vd/F in series [3] of 0.214 L/kg. Also, the “% increase AUC (insulin, 0-10 min after glucose)” value in series [4] (Dose 10 μg/kg iv, 0 h between glucose & compound) is “+146%”; in series [4] (Dose 10 μg/kg iv, 4 h between glucose & compound), “+104%”; in series [4] (Dose 30 μg/kg iv, 4 h between glucose & compound), “+191%”; in series [4] (Dose 100 μg/kg iv, 4 h between glucose & compound), “+183%”; in series [4] (Dose 300 μg/kg, given subcutaneously, 24 h between glucose & compound), “+209%”; in series [4] (Dose was 90 μg/kg (column 100 μg/kg), given subcutaneously, 24 h between glucose & compound), “+89** %”. In addition, the IC50 in series [1] was over 3000 nM.

For HSDAVFTENYTKL[Aib]KQ[Nle]AAKKYLNDLKQKGGPSSGAPPPC (also: further groups not given here) [P274 (cyclic PEGylated VPAC2 receptor peptide agonist)], the “EC50 for cAMP generation, Alpha screen” value in series [5] turned out to be 76.1 nM. In series [6], this molecule registered an IC50 of 126 nM.

B1: P268 (cyclic PEGylated VPAC2 receptor peptide agonist) (peptide)
peptide: HSDAVFTENYTKLRKQ[Nle]AAKKYLNDLKQKGGPSSGAPPPC
modifications: ends and bridges not checked; also: cyclic bridge (lactam or disulfide), places not given here, PEGylated, site not given here
Turning to B1, the “EC50 for cAMP generation, Alpha screen” value in series [5] came out at 8.82 nM.

Turning to HSDAVFTENYTKLR[Aib]Q[Nle]AAKKYLNDLKKGGPSSGAPPPC (also: further groups not given here) [P279 (cyclic PEGylated VPAC2 receptor peptide agonist)], the “EC50 for cAMP generation, Alpha screen” value in series [5] was found to be 5.93 nM. In series [6], this molecule returned an IC50 of 7.2 nM.

For the molecule HSDAVFTENYTKLRKQ[Nle]AAKKYLNDLKQGGPSSGAPPPC (also: further groups not given here) [P277 (cyclic PEGylated VPAC2 receptor peptide agonist)], the “EC50 for cAMP generation, Alpha screen” value in series [5] turned out to be 470 nM. In addition, the IC50 in series [6] amounted to 90.9 nM.
